Experimental data reported in the supplement of paper PMC9732359.
± gives the uncertainty stated by the source.

Experiment: protein stability index of a GFP-peptide fusion (yeast GPS) (PSI 1-4); higher = more stable; sorted into four equal gates, so the index is relative within each strain
Procedure, shortened: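 Tiled 17-residue peptides from yeast proteins were fused downstream of GFP on a plasmid that also expresses Cherry, and the pooled library was carried in yeast. Mid-log cultures grown in leucine-free medium were sorted into four equal gates by GFP/Cherry fluorescence ratio. Plasmids from each gate were PCR-amplified and Illumina-sequenced, and reads were assigned to strains by barcodes. Each peptide's protein stability index is the sum, over gates, of the gate's read frequency multiplied by its gate number.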

Sequence	protein stability index (doa10∆)	protein stability index (pdr5∆)	protein stability index (san1∆)	protein stability index (ubr1∆)
PHATATEKEPVPAVVDD [SNF6]	3.24 ± 0.11	3.08 ± 0.068	2.82 ± 0.14	3.18 ± 0.087
LKTFHFAGVASMNVTLG [RPO31]	2.17 ± 0.081	2.25 ± 0.048	2.34 ± 0.093	1.98 ± 0.055
YVIKALQSLTSKGYVKT [RPS10A]	2.88 ± 0.12	1.74 ± 0.072	1.39 ± 0.17	2.6 ± 0.089
FITNVQSISQNSSSSTP [SWI1]	2.38 ± 0.069	2.63 ± 0.063	2.43 ± 0.064	2.44 ± 0.05
ENLFSKEEVCQGMEGTV [YMR129W/POM152]	2.5 ± 0.073	2.95 ± 0.073	2.92 ± 0.054	2.65 ± 0.089
ELSNELSRLSTASKIIV [MED1]	2.68 ± 0.087	2.55 ± 0.089	2.72 ± 0.097	3.26 ± 0.077
RPHQSRESLIMLLEEQL [MED7]	2 ± 0.081	2.37 ± 0.093	1.45 ± 0.19	2.12 ± 0.054
VMYGTAYKFEEVSKDLI [RPB8]	2.9 ± 0.062	3.18 ± 0.061	3.34 ± 0.044	3.09 ± 0.051
DTKSVVGLVMFSQFWYW [RPN2]	2.35 ± 0.06	2.3 ± 0.062	2.61 ± 0.097	2.52 ± 0.04
DPNIKVNDTVKIDLASG [RPS4A]	2.81 ± 0.079	2.75 ± 0.063	2.73 ± 0.087	2.41 ± 0.053
MAKSKNHTAHNQTRKAH [RPL29]	1.7 ± 0.058	2.41 ± 0.08	1.96 ± 0.095	2.32 ± 0.067
DFKAKYCDSMGRPQRKM [RPB5]	3.44 ± 0.24	3.18 ± 0.15	3.22 ± 0.17	3.32 ± 0.1
DPFKTSSFNKRSKFLST [IRR1]	2.15 ± 0.074	2.46 ± 0.053	2.04 ± 0.082	2.12 ± 0.057
SPYGNLQNDLIHKIQND [RPN5]	2.02 ± 0.083	2.67 ± 0.053	2.82 ± 0.07	2.56 ± 0.058
KVFDTLTRFSHDADLEV [RPN1]	2.44 ± 0.073	2.31 ± 0.054	2.44 ± 0.063	2.67 ± 0.047
SGNNNGGFTNLTSQAPQ [YDL088C/ASM4]	3.24 ± 0.071	3.31 ± 0.053	3.16 ± 0.054	3.29 ± 0.042
KTQEYYTQYTNDYLEKH [CDC53]	2.99 ± 0.062	2.42 ± 0.067	2.96 ± 0.049	3.22 ± 0.062
EQHNLVKKGPVRLPTKV [RPS20]	2.45 ± 0.097	2.61 ± 0.16	2.65 ± 0.063	2.64 ± 0.075
AAPSAADIKAVVESVGA [RPP2B]	3.08 ± 0.1	3.06 ± 0.073	3.05 ± 0.094	3.29 ± 0.084
RALKVRNAQAQREAAAE [RPS6A]	3 ± 0.14	2.98 ± 0.1	2.74 ± 0.074	2.94 ± 0.13

Sequence	protein stability index (doa10∆)	protein stability index (pdr5∆)	protein stability index (san1∆)	protein stability index (ubr1∆)
KLSSAENANADLENKFN [YIL149C/MLP2]	3.06 ± 0.063	3.31 ± 0.073	3.07 ± 0.062	3.1 ± 0.042
KITIGIQRTTESLILKW [RGR1]	2.33 ± 0.086	1.6 ± 0.067	1.49 ± 0.078	1.66 ± 0.04
NNLFRIIAELSFLKVDP [YJL039C/NUP192]	3.08 ± 0.054	3.02 ± 0.12	3.24 ± 0.093	3.07 ± 0.086
LEYMNTARINNRRLFKK [RRI2]	2.5 ± 0.08	2.21 ± 0.072	2.3 ± 0.083	2.5 ± 0.075
DYLTLNKVVVNLNDAGL [RPN2]	2.73 ± 0.091	3.02 ± 0.08		3.16 ± 0.06
VGKQIVNIPSFMVRLDS [RPS9A]	2.59 ± 0.099	2.69 ± 0.12	2.42 ± 0.18	2.62 ± 0.096
KAKIIPGNGKHASENIS [SIR4]	2.61 ± 0.11	3.04 ± 0.13	2.67 ± 0.13	2.81 ± 0.12
VPRKFKHFIQGGSFGNR [RPL7A]	3.36 ± 0.13	2.85 ± 0.1	3.13 ± 0.12	2.17 ± 0.055
KRITQITIEPGVDVEVV [RPS20]	2.7 ± 0.089	1.78 ± 0.17	2.81 ± 0.15	2.6 ± 0.09
ITSNHKSSVPGSAELRN [RPN3]	2.69 ± 0.087	3.25 ± 0.074	2.67 ± 0.069	2.63 ± 0.08
QMEDMEESINEFKSIEI [SMC4]	3.28 ± 0.13	3.4 ± 0.11	3.27 ± 0.049	2.93 ± 0.085
FKAEKLQIVNQLPANMV [RPC17]	3.36 ± 0.085	3.07 ± 0.068	3.03 ± 0.071	3.13 ± 0.056
LYYDEDINVESLTQSVC [PUP2]	2.36 ± 0.061	2.25 ± 0.052	2.46 ± 0.064	2.21 ± 0.031
VLKFTFTGEKPIITGST [MED8]	2.01 ± 0.082	2.18 ± 0.074	2.04 ± 0.12	2.07 ± 0.062
STTTSLHVPNLQPPKTS [SMC4]	2.13 ± 0.036	2.33 ± 0.033	2.1 ± 0.046	1.93 ± 0.027
SSIENNINNNINSTKNG [MED2]	2.85 ± 0.081	3.11 ± 0.093	2.88 ± 0.084	3.17 ± 0.063
DIISGKIHSILPVMESL [YJR042W/NUP85]	2.85 ± 0.074	3.13 ± 0.11	2.84 ± 0.11	2.4 ± 0.062
SYNNTGISDDENDEEDI [RRP4]	2.85 ± 0.11	3.27 ± 0.12	2.84 ± 0.086	2.96 ± 0.099
KHFIQGGSFGNREEFIN [RPL7A]	1.61 ± 0.21	1.86 ± 0.14	1.21 ± 0.23	1.56 ± 0.04
